Measurements reported in patent US20200140562A1 (Innovent, published 2020).
One block for each binder: values may come before it.

Legend:
[1] = target: T1, human OX40 on cells (CHO-hOX40, 293HEK-hOX40, Jurkat-hOX40, activated primary CD4+ T cells) (human, UniProt P43489 29-277); assay: cell-based or functional assay
T1 sequence (looked up): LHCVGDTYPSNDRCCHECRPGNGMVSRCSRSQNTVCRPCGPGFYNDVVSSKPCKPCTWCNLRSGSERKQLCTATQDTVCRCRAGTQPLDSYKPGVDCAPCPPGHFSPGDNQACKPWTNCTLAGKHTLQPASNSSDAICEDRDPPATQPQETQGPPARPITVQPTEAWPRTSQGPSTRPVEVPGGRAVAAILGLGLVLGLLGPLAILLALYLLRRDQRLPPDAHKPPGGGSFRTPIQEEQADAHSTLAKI

[2] = target: T1, human OX40 on cells (CHO-hOX40, …); assay: flow cytometry, CHO-hOX40, 100 nM
[3] = target: T2, human OX40_Fc (R&D Systems) (human, UniProt P43489 29-216); assay: BLI, IgG1 on tip, hOX40-Fc 50 nM, avid
T2 construct: Bought

[4] = target: T3, cyno OX40_Fc (Acro Biosystems) (cyno); assay: BLI, IgG1 on tip, cyno OX40-Fc 100 nM, avid
T3 construct: Bought

[5] = target: T4, mouse OX40Fc (Acro Biosystems) (mouse, UniProt P47741 20-211, limits assumed); assay: BLI, IgG1 on tip, mouse OX40-Fc 100 nM, avid
T4 construct: Bought; not shown: Fc
T4 sequence (looked up): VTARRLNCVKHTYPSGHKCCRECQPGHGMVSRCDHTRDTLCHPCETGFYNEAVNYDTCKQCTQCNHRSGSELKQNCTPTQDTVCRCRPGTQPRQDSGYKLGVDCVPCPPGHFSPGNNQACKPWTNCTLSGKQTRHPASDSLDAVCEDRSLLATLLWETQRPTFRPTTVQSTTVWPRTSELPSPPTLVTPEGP

[6] = target: T1, human OX40 on cells (CHO-hOX40, …); assay: flow cytometry, MFI on CHO-hOX40 over wild-type CHO
[7] = target: T1, human OX40 on cells (CHO-hOX40, …); assay: flow cytometry, 293HEK-hOX40 cells
[8] = target: T1, human OX40 on cells (CHO-hOX40, …); assay: flow cytometry, CHO-hOX40, 25 nM
[9] = target: T1, human OX40 on cells (CHO-hOX40, …); assay: flow cytometry, CHO-hOX40, 50 nM
[10] = target: T1, human OX40 on cells (CHO-hOX40, …); assay: flow cytometry, CHO-hOX40, 100 nM; remark: listed apart in the source
[11] = target: T1, human OX40 on cells (CHO-hOX40, …); assay: flow cytometry, CHO-hOX40, 200 nM
[12] = target: T1, human OX40 on cells (CHO-hOX40, …); assay: flow cytometry, CHO-hOX40, 12.5 nM
[13] = target: T1, human OX40 on cells (CHO-hOX40, …); assay: flow cytometry, CHO-hOX40, 6.25 nM
[14] = target: T1, human OX40 on cells (CHO-hOX40, …); assay: flow cytometry, 293HEK-hOX40, 8 nM
[15] = target: T1, human OX40 on cells (CHO-hOX40, …); assay: flow cytometry, CHO-hOX40, 3.125 nM
[16] = target: T1, human OX40 on cells (CHO-hOX40, …); assay: flow cytometry, 293HEK-hOX40, 40 nM
[17] = target: T1, human OX40 on cells (CHO-hOX40, …); assay: flow cytometry, CHO-hOX40, 1.5625 nM
[18] = target: T1, human OX40 on cells (CHO-hOX40, …); assay: flow cytometry, 293HEK-hOX40, 1.6 nM
[19] = target: T1, human OX40 on cells (CHO-hOX40, …); assay: flow cytometry, 293HEK-hOX40, 200 nM
[20] = target: T1, human OX40 on cells (CHO-hOX40, …); assay: flow cytometry, CHO-hOX40, 0.78125 nM
[21] = target: T1, human OX40 on cells (CHO-hOX40, …); assay: flow cytometry, CHO-hOX40, 0.390625 nM
[22] = target: T1, human OX40 on cells (CHO-hOX40, …); assay: flow cytometry, CHO-hOX40, 0.1953125 nM
[23] = target: T1, human OX40 on cells (CHO-hOX40, …); assay: flow cytometry, CHO-hOX40, 0.09765625 nM
[24] = target: T1, human OX40 on cells (CHO-hOX40, …); assay: flow cytometry, CHO-hOX40, 0.024414063 nM
[25] = target: T1, human OX40 on cells (CHO-hOX40, …); assay: flow cytometry, CHO-hOX40, 0.048828125 nM
[26] = target: T1, human OX40 on cells (CHO-hOX40, …); assay: flow cytometry, activated CD4+ T cells, donor 1, 100 nM
[27] = target: T1, human OX40 on cells (CHO-hOX40, …); assay: flow cytometry, activated CD4+ T cells, donor 2, 100 nM
[28] = target: T1, human OX40 on cells (CHO-hOX40, …); assay: flow cytometry, CHO-hOX40, 100 nM blocker, competitor OX40L-hFc-fluorescein

EC50, NFkB-luciferase reporter in Jurkat-hOX40 mixed with Raji cells [1]: 174 pM | CHO-OX40 binding intensity (MFI) [2]: 181000 MFI | Kd [3]: 273 pM | Kd [4]: 1090 pM | Kd [5]: 8980 pM | Fold difference [6]: 1550 fold
B1: ADI-23515, IgG1 format (antibody)
heavy: not shown
light: EIVLTQSPGTLSLSPGERATLSCRASQSVSSSYLAWYQQKPGQAPRLLIYGASSRATGIPDRFSGSGSGTDFTLTISRLEPEDFAVYYCQQSERSPFTFGGGTKVEIKRTVAAPSVFIFPPSDEQLKSGTASVVCLLNNFYPREAKVQWKVDNALQSGNSQESVTEQDSKDSTYSLSSTLTLSKADYEKHKVYACEVTHQGLSSPVTKSFNRGEC
notes: Made in yeast or CHO cells; also called ADI-23515-g1

binding result [7]: no binding (tested: 200 nM) | MFI [8]: 1560 MFI | MFI [9]: 1700 MFI | MFI [10]: 1720 MFI | MFI [11]: 2820 MFI | MFI [12]: 1630 MFI | MFI [13]: 1600 MFI | MFI [14]: 5310 MFI | MFI [15]: 1750 MFI | MFI [16]: 25200 MFI | MFI [17]: 1930 MFI | MFI [18]: 5630 MFI | MFI [19]: 11100 MFI | MFI [20]: 1680 MFI | MFI [21]: 1710 MFI | MFI [22]: 1510 MFI | MFI [23]: 2380 MFI | MFI [24]: 2070 MFI | MFI [25]: 2020 MFI | MFI [26]: 6310 MFI | MFI [27]: 1710 MFI | MFI of OX40L signal on CHO-OX40 cells [28]: 35100 MFI
B2: IgG1 control (antibody, V domains shown)
VH: EVRLLESGGGLVQPGGSLRLSCAASGFTFSNYAMGWVRQAPGKGLEWVSAISGSGGSTYYADSVKGRFTTSRDDSKNALYLQMNSLRAEDTAVYYCARGGPGWYAADVWGQGTTVTVSS
VL: DIQMTQSPSSLSASVGDRVTITCRASQSISSYLNWYQQKPGKAPKLLIYAASSLQSGVPSRFSGSGSGTDFTLTISSLQPEDFATYYCQQADLPAFAFGGGTKVEIKR
notes: Negative control; The printed entries seem to begin with a leader peptide
